Read-outs that look alike come from different tables or passages of the source. Blank lines part the entries; values can stand above or below the compound they belong to. Where a SMILES comes first, the peptide text is derived from it. Bridges are numbered along the chain shown (N, C = ends). Roman numbers before positions name the chains, in order. Where no end group is shown, it is not given here. [ ]: non-standard residue; d: D form. NMeW = CN[C@@H](Cc1c[nH]c2ccccc12)C(=O)O; NMeH = CN[C@@H](Cc1c[nH]cn1)C(=O)O; NMeR = CN[C@@H](CCCNC(=N)N)C(=O)O; NMeE = CN[C@@H](CCC(=O)O)C(=O)O; NMeQ = CN[C@@H](CCC(N)=O)C(=O)O; NMeD = CN[C@@H](CC(=O)O)C(=O)O; NMeN = CN[C@@H](CC(N)=O)C(=O)O; NMeL = CN[C@@H](CC(C)C)C(=O)O; NMeV = CN[C@H](C(=O)O)C(C)C; NMeC = CN[C@@H](CS)C(=O)O; βAla = NCCC(=O)O
What was measured:
[1] = Stability of thioether macrocyclic peptide in human serum pool (LC-MS); assay type: in vitro ADME; settings: for remaining at 4 h, 1 μM: Table 9; for Stability in human serum (undegraded portion/time): Table 10
Method: A DMSO solution of the thioether macrocyclic peptide to be evaluated was dissolved in a human serum pool to give a concentration of 1 μM. The human serum pool containing the thioether macrocyclic peptide thus prepared was incubated at 37° C.
After an elapse of the evaluation time, the human serum pool containing the thioether macrocyclic peptide was placed on ice and a peptide serving as an internal standard was added and mixed to give a concentration of 1 μM. The resulting mixture was added to a solid-phase extraction column (Hyper Sep SPE column, Thermo Scientific), washed with a 5% aqueous acetonitrile solution containing 0.1% TFA, and then purified by eluting with a 70% aqueous acetonitrile solution containing 0.1% TFA.
The molecular weight of the purified product was analyzed using LC-MS and the cleavage site in the serum was identified. In addition, the thioether macrocyclic peptide which had remained without being cleaved was quantitatively determined by comparing an amount relative to the internal standard at every incubation time.

c-Met-Fc = c-Met-Fc (Homo sapiens, UniProt P08581); assay: Binding ability by surface plasmon resonance (SPR, Biacore); settings: for kon: read-out: ka
Method: Binding ability of the thioether macrocyclic peptide was evaluated by SPR measurement using Biacore (GE Healthcare).
As a sensor chip, Sensor Chip CM5 was used and an anti-IgG antibody was immobilized on a measurement lane and a control lane by using Human Antibody Capture Kit.
On the measurement lane was immobilized c-Met-Fc, while on the control lane was immobilized Fc protein.
As a running buffer, HBS-EP+ buffer containing 0.1% DMSO was used and a dissociation constant of the thioether macrocyclic peptide was calculated at 5 different concentrations by using the single-kinetics method.

c-Met = biological target: T1, c-Met (Homo sapiens, UniProt P08581); assay: Activity of dimeric peptide by ELISA (c-Met phosphorylation level in EHMES-1 cells); assay type: cell-based; settings: for Activity (c-Met phosphorylation level by ELISA): Table 12, EHMES-1 cells, 10 minutes stimulation; for c-Met phosphorylation: Table 13
T1 construct: endogenous in cells; host or cells: EHMES-1 (human mesothelioma)
Method: Each dimeric peptide was added to human EHMES-1 cells and the mixture was incubated for 10 minutes to stimulate the cells.
As a control experiment, a recombinant human HGF protein was added and the mixture was incubated for 10 minutes to stimulate cells.
A phosphorylation level of c-Met was quantitatively analyzed using ELISA.

[2] = human serum pool, 37° C., 1 μM, 4 h
[3] = Table 11, monomer and dimeric peptides

c-Met-Fc, sequence (P08581 with tags, fused parts or gaps limits assumed): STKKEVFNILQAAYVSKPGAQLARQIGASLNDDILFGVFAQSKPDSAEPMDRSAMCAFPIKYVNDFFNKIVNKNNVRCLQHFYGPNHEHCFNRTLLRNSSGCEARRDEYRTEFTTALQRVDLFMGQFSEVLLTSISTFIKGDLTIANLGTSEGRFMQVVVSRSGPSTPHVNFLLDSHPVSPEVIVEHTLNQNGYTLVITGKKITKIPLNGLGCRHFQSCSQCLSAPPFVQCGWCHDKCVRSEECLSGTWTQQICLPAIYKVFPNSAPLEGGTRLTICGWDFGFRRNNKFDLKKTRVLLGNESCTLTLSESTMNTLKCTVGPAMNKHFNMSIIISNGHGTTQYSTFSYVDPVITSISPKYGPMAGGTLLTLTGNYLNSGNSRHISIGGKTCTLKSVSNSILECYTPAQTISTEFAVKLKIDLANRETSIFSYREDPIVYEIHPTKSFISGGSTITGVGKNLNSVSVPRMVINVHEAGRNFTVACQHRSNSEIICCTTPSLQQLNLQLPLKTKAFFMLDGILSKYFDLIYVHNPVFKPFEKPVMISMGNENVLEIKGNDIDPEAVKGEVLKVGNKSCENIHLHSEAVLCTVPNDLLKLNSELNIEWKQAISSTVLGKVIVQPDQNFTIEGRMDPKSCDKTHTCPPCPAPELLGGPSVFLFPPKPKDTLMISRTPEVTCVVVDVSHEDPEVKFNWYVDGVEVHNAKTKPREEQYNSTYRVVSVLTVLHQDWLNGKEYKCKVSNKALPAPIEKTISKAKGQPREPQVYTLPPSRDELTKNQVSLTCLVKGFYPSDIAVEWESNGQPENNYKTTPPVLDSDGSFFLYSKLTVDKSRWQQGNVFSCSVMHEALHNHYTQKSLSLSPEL
c-Met-Fc, sequence (P08581 25-307 limits assumed): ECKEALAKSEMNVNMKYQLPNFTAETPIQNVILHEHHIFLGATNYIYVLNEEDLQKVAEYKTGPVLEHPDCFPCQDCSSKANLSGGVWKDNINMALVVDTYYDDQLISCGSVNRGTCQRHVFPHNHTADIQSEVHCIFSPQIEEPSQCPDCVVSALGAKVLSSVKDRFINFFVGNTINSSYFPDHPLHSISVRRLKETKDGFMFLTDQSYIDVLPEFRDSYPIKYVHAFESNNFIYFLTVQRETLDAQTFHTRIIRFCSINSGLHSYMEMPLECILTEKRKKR
T1 sequence (P08581 25-1390): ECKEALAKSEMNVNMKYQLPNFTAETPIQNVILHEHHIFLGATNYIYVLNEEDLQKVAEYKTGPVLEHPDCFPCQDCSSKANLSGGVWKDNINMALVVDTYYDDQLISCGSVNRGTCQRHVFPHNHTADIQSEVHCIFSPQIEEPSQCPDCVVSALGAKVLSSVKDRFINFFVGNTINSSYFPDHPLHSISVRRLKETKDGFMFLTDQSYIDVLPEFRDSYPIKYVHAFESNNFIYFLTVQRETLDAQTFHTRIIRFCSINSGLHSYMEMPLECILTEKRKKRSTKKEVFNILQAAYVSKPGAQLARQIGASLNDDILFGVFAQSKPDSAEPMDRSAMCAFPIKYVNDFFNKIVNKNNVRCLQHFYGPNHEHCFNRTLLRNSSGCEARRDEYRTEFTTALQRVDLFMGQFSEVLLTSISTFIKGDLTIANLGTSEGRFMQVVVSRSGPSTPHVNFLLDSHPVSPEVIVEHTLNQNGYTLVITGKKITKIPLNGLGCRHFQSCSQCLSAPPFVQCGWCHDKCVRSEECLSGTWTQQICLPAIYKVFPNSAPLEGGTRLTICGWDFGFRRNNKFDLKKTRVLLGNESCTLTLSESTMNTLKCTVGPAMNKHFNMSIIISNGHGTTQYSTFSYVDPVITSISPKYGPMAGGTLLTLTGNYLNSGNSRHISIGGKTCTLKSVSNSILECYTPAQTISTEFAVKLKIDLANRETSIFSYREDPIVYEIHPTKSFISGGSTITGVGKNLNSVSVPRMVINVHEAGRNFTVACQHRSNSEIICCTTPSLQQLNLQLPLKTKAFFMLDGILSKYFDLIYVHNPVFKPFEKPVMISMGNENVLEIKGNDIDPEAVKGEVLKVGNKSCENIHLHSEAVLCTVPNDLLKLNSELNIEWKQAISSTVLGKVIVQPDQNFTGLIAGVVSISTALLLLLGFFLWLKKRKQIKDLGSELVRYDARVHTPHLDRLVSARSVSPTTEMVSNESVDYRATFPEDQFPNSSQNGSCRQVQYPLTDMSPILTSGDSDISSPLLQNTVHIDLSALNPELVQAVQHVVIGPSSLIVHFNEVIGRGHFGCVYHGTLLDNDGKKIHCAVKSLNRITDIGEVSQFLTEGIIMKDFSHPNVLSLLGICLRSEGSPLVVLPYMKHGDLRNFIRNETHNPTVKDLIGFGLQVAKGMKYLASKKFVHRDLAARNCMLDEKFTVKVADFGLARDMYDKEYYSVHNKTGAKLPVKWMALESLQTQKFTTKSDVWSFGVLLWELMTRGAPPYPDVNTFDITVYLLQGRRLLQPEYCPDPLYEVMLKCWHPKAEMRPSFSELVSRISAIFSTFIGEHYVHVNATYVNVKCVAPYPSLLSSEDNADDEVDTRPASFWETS

- remaining at 4 h, 1 μM [1, 2]: 63%
- Stability in human serum (undegraded portion/time) ([1]; 4 h, 37° C.): 67%/4 h
- Stability in serum (in words) ([1]; human serum): considerably excellent
- Kd (c-Met-Fc; Table 9, c-Met-Fc): 5.2 nM
- kon (c-Met-Fc; Table 9, c-Met-Fc): 390000 M⁻¹ s⁻¹
Compound: CC(C)C[C@@H]1NC(=O)[C@H](CC(N)=O)NC(=O)[C@H](Cc2c[nH]c3ccccc23)NC(=O)[C@H](C(C)C)NC(=O)[C@H](CCC(=O)O)NC(=O)[C@H](Cc2c[nH]cn2)NC(=O)[C@H]([C@@H](C)O)NC(=O)[C@H](CCCNC(=N)N)NC(=O)[C@H](CCCNC(=N)N)N(C)C(=O)[C@H](CC(N)=O)NC(=O)[C@H](Cc2ccccc2)NC(=O)[C@H](CCC(N)=O)NC(=O)[C@H](CCCNC(=N)N)NC(=O)[C@@H](Cc2ccc(O)cc2)NC(=O)CSC[C@@H](C(=O)NCC(N)=O)N(C)C(=O)[C@H](CC(=O)O)NC1=O [Peptide D4-3NMe] ({CH2CO}-[dY]RQFN[NMeR]RTHEVWNLD[NMeC]G-NH2; thioether N-16)

- remaining at 1 h, 1 μM ([1]; Table 8, human serum pool, 37° C., 1 μM, 1 h): 3.7%
- remaining at 4 h, 1 μM [1, 2]: < 3.7%
- Stability in human serum (undegraded portion/time) ([1]; 2 h, 37° C.): 6%/2 h
- kon (c-Met-Fc; Table 8, c-Met-Fc): 1.3e+06 M⁻¹ s⁻¹
- kon (c-Met-Fc; Table 10, c-Met-Fc): 2.4e+06 M⁻¹ s⁻¹
Compound: CC(C)C[C@@H]1NC(=O)[C@H](CC(N)=O)NC(=O)[C@H](Cc2c[nH]c3ccccc23)NC(=O)[C@H](C(C)C)NC(=O)[C@H](CCC(=O)O)NC(=O)[C@H](Cc2c[nH]cn2)NC(=O)[C@H]([C@@H](C)O)NC(=O)[C@H](CCCNC(=N)N)NC(=O)[C@H](CCCNC(=N)N)NC(=O)[C@H](CC(N)=O)NC(=O)[C@H](Cc2ccccc2)NC(=O)[C@H](CCC(N)=O)NC(=O)[C@H](CCCNC(=N)N)NC(=O)[C@@H](Cc2ccc(O)cc2)NC(=O)CSC[C@@H](C(=O)NCC(N)=O)NC(=O)[C@H](CC(=O)O)NC1=O [Peptide D4-3] ({CH2CO}-[dY]RQFNRRTHEVWNLDCG-NH2; thioether N-16; N-terminus and C-terminus assumed)

- kon (c-Met-Fc; Table 8, c-Met-Fc): 15000 M⁻¹ s⁻¹
Compound: CC(C)C[C@@H]1NC(=O)[C@H](CC(N)=O)NC(=O)[C@H](Cc2c[nH]c3ccccc23)NC(=O)[C@H](C(C)C)N(C)C(=O)[C@H](CCC(=O)O)NC(=O)[C@H](Cc2c[nH]cn2)NC(=O)[C@H]([C@@H](C)O)NC(=O)[C@H](CCCNC(=N)N)NC(=O)[C@H](CCCNC(=N)N)NC(=O)[C@H](CC(N)=O)NC(=O)[C@H](Cc2ccccc2)NC(=O)[C@H](CCC(N)=O)NC(=O)[C@H](CCCNC(=N)N)NC(=O)[C@@H](Cc2ccc(O)cc2)NC(=O)CSC[C@@H](C(=O)NCC(N)=O)NC(=O)[C@H](CC(=O)O)NC1=O [Peptide N11] ({CH2CO}-[dY]RQFNRRTHE[NMeV]WNLDCG-NH2; thioether N-16; C-terminus assumed)

- kon (c-Met-Fc; Table 8, c-Met-Fc): 55000 M⁻¹ s⁻¹
Compound: CC(C)C[C@@H]1NC(=O)[C@H](CC(N)=O)NC(=O)[C@H](Cc2c[nH]c3ccccc23)N(C)C(=O)[C@H](C(C)C)NC(=O)[C@H](CCC(=O)O)NC(=O)[C@H](Cc2c[nH]cn2)NC(=O)[C@H]([C@@H](C)O)NC(=O)[C@H](CCCNC(=N)N)NC(=O)[C@H](CCCNC(=N)N)NC(=O)[C@H](CC(N)=O)NC(=O)[C@H](Cc2ccccc2)NC(=O)[C@H](CCC(N)=O)NC(=O)[C@H](CCCNC(=N)N)NC(=O)[C@@H](Cc2ccc(O)cc2)NC(=O)CSC[C@@H](C(=O)NCC(N)=O)NC(=O)[C@H](CC(=O)O)NC1=O [Peptide N12] ({CH2CO}-[dY]RQFNRRTHEV[NMeW]NLDCG-NH2; thioether N-16; C-terminus assumed)

- kon (c-Met-Fc; Table 8, c-Met-Fc): 300000 M⁻¹ s⁻¹
Compound: CC(C)C[C@@H]1NC(=O)[C@H](CC(N)=O)NC(=O)[C@H](Cc2c[nH]c3ccccc23)NC(=O)[C@H](C(C)C)NC(=O)[C@H](CCC(=O)O)NC(=O)[C@H](Cc2c[nH]cn2)NC(=O)[C@H]([C@@H](C)O)NC(=O)[C@H](CCCNC(=N)N)NC(=O)[C@H](CCCNC(=N)N)NC(=O)[C@H](CC(N)=O)NC(=O)[C@H](Cc2ccccc2)NC(=O)[C@H](CCC(N)=O)NC(=O)[C@H](CCCNC(=N)N)NC(=O)[C@@H](Cc2ccc(O)cc2)NC(=O)CSC[C@@H](C(=O)NCC(N)=O)NC(=O)[C@H](CC(=O)O)N(C)C1=O [Peptide N15] ({CH2CO}-[dY]RQFNRRTHEVWNL[NMeD]CG-NH2; thioether N-16; C-terminus assumed)

- ka (c-Met-Fc; [3]): 1.1 10^6 M^−1s^−1
- kd (c-Met-Fc; [3]): 0.070 10^−2 s^−1
- Activity (c-Met phosphorylation level by ELISA) (c-Met): Low
- c-Met phosphorylation (c-Met): Promote
Compound: D4-3 Bis-MAL-PEG3: dimeric peptide: two D4-3 macrocycles linked through C-terminal Cys by Bis-MAL-PEG3 linker ({CH2CO}-[dY]RQFNRRTHEVWNLDCGC; thioether N-16; not fully specified (residue 18); also: dimer: two copies joined by Bis-MAL-PEG3, linker at 18 via Bis-MAL-PEG3, other end not in the chain)

- ka (c-Met-Fc; [3]): 0.12 10^6 M^−1s^−1
- kd (c-Met-Fc; [3]): 0.054 10^−2 s^−1
- Activity (c-Met phosphorylation level by ELISA) (c-Met): High
- c-Met phosphorylation (c-Met): Promote
Compound: D5-4 Bis-MAL-PEG3: dimeric peptide: two D5-4 macrocycles linked through C-terminal Cys by Bis-MAL-PEG3 linker (peptide 1 {CH2CO}-[dY]WYYAWDQTYKAFPCG; peptide 2 {CH2CO}-[dY]WYYAWDQTYKAFPCG; thioether I:N-I:15, II:N-II:15; not fully specified (C-terminus); also: dimer: two chains joined by Bis-MAL-PEG3 through an added C-terminal Cys not in the letters)

- ka (c-Met-Fc; [3]): 0.098 10^6 M^−1s^−1
- kd (c-Met-Fc; [3]): 0.031 10^−2 s^−1
- Activity (c-Met phosphorylation level by ELISA) (c-Met): Low
- c-Met phosphorylation (c-Met): Promote
Compound: L5-2 Bis-MAL-PEG11: dimeric peptide: two L5-2 macrocycles linked through C-terminal Cys by Bis-MAL-PEG11 linker ({CH2CO}-YISWNEFNSPNWRFITCG[βAla]C-NH2; thioether N-17; not fully specified (residue 20); also: dimer: two copies joined by Bis-MAL-PEG11, linker at 20 via Bis-MAL-PEG11, other end not in the chain)

Compound: N3: N-methylated peptide of D4-3 ({CH2CO}-[dY]R[NMeQ]FNRRTHEVWNLDC-NH2; thioether N-16; also: bridge 1-16 listed as disulfide) [Peptide N3]
- Kd (c-Met-Fc; Table 8, c-Met-Fc): 120 nM
- ka (c-Met-Fc; Table 8, c-Met-Fc): 0.27 10^5 M^−1s^−1
- kd (c-Met-Fc; Table 8, c-Met-Fc): 0.31 10^−2 s^−1

Compound: N5: N-methylated peptide of D4-3 ({CH2CO}-[dY]RQF[NMeN]RRTHEVWNLDC-NH2; thioether N-16; also: bridge 1-16 listed as disulfide) [Peptide N5]
- Kd (c-Met-Fc; Table 8, c-Met-Fc): 200 nM
- ka (c-Met-Fc; Table 8, c-Met-Fc): 0.19 10^5 M^−1s^−1
- kd (c-Met-Fc; Table 8, c-Met-Fc): 0.39 10^−2 s^−1

Compound: N9: N-methylated peptide of D4-3 ({CH2CO}-[dY]RQFNRRT[NMeH]EVWNLDC-NH2; thioether N-16; also: bridge 1-16 listed as disulfide) [Peptide N9]
- KD (c-Met-Fc; Table 8, c-Met-Fc): Not binding

Compound: N10: N-methylated peptide of D4-3 ({CH2CO}-[dY]RQFNRRTH[NMeE]VWNLDC-NH2; thioether N-16; also: bridge 1-16 listed as disulfide) [Peptide N10]
- Kd (c-Met-Fc; Table 8, c-Met-Fc): 300 nM
- ka (c-Met-Fc; Table 8, c-Met-Fc): 0.25 10^5 M^−1s^−1
- kd (c-Met-Fc; Table 8, c-Met-Fc): 0.75 10^−2 s^−1

Compound: N14: N-methylated peptide of D4-3 ({CH2CO}-[dY]RQFNRRTHEVWN[NMeL]DC-NH2; thioether N-16; also: bridge 1-16 listed as disulfide) [Peptide N14]
- Kd (c-Met-Fc; Table 8, c-Met-Fc): 290 nM
- ka (c-Met-Fc; Table 8, c-Met-Fc): 0.21 10^5 M^−1s^−1
- kd (c-Met-Fc; Table 8, c-Met-Fc): 0.59 10^−2 s^−1

Reference: patent US9994616B2, “c-Met protein agonist” (The University of Tokyo, priority 2013, dated 2018)
